Test results as given in patent publication US7312058B2, “Mutant serine acetyltransferase” (priority 2003, dated 2007).

Experiments:
[1] = test system: serine acetyltransferase (SAT)
Procedure: Acetyl coenzyme A and other chemicals used were from Sigma Chemical Co. (St. Louis, Mo., USA).
The cells were sonicated and the pellet was separated by centrifugation at 13000 rpm. The SAT-containing protein fractions in the resulting supernatant were precipitated by 5 volumes of saturated (NH4)2SO4 and pellets were dissolved in 2 ml of buffer (pH 7.5, 50 mM potassium phosphate and 100 mM KCl). The obtained solution was added to 0.1 ml of reaction mixture (500 mM Tris-HCl (pH 8.5), 5 mM L-serine, 0.1 mM acetyl coenzyme A) and incubated at 37° C. for 10 min. The reaction was stopped by adding 0.3 ml of ethanol followed by centrifugation at 13000 rpm. 0.95 ml of 0.24 mM DTNB (5,5-dithio-bis-2-nitrobenzoate) solution was added to supernatant and mixture was incubated for 15 min. The SAT activity was assayed by measuring the absorbance at 412 nm.

E. coli strain MG1655 = assay: L-cysteine production by test-tube fermentation of strains carrying a mutant cysE plasmid; assay type: cell-based
Description: The E. coli strain MG1655 (ATCC47076, ATCC700926) was used as a parental strain for evaluation of effect of enhanced expression of mutant cysE gene on L-cysteine production.
Plasmids pMW-PompC-cysEX (containing mutant cysEX gene encoding a mutant SAT in which Thr167 is replaced with Ala, which is described in the U.S. Pat. No. 6,218,168) and pMW-PompC-cysE5 were introduced into the E. coli strain MG1655. The resulting strains MG1655/pMW-PompC-cysEX and MG1655/pMW-PompC-cysE5 were cultivated overnight with shaking at 34° C. in 2 ml of nutrient broth supplemented with 100 mg/l of ampicillin. 0.2 ml of the obtained cultures were inoculated into 2 ml of a fermentation medium containing ampicillin (100 mg/l) in 20×200 mm test tubes, and cultivated at 34° C. for 42 hours with a rotary shaker at 250 rpm. The composition of the fermentation medium was the following: 15.0 g/l of (NH4)2SO4, 1.5 g/l of KH2PO4, 1.0 g/l of MgSO4, 20.0 g/l of CaCO3, 0.1 mg/l of thiamine, 1% of LB, 4% of glucose, 300 mg/l of L-methionine and 0.5 g/l of Na2S2O3.
After cultivation, the amount of L-cysteine which had accumulated in the medium was determined by the method described by Gaitonde, M. K. (Biochem. J., 104:2, 627-33 (1967)).

cysE5 (RTRDPARP; randomized region of SAT protein only)
Residual activity in presence 25 μM cysteine, % ([1]; 25 μM cysteine): 100% | Specific activity, relative units ([1]; protein fraction from LE392 cysE::KmR carrying the plasmid, 5 mM L-serine, 0.1 mM acetyl coenzyme A, 37° C., 10 min): 900 relative units | sensitivity to feedback inhibition by L-cysteine ([1]; statement from Table 2 and FIG. 5): no sensitivity to feedback inhibition by L-cysteine | effect of overexpression on cysteine productivity (E. coli strain MG1655): improved cysteine productivity
